Laboratory results reported in PMC8492665, “An apple (Malus domestica) AP2/ERF transcription factor modulates carotenoid accumulation”.

Molecular target: MdAP2-34 (Malus domestica, UniProt A0A678SKA5 1-366)
Assay: EMSA; LightShift Chemiluminescent EMSA Kit (Thermo Fisher); buffer, salt, pH and temperature not stated
Settings: protein: recombinant; tags: GST (pGEX-4T-1, N-terminal); label: 5' biotin; blunt

Sequence of MdAP2-34 (A0A678SKA5 entry or part of it): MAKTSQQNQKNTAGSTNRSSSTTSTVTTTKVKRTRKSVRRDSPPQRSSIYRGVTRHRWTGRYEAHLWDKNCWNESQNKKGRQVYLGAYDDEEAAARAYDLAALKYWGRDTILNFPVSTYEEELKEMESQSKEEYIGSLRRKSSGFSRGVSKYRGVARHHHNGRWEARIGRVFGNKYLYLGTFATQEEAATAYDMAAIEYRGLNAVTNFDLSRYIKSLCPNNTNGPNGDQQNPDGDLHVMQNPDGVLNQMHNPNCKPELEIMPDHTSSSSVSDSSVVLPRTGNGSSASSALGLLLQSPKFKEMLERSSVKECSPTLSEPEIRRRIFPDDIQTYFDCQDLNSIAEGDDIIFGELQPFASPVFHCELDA

B1: MdPSY2-1 promoter hot probe (dsDNA)
DNA 1: CTTTTCTTCTCTCAGTACATGCACCGACGTCGATATTAACCTTGGAACCT
DNA 2: AGGTTCCAAGGTTAATATCGACGTCGGTGCATGTACTGAGAGAAGAAAAG
Q: Does B1 bind?
A: Result: binds
